PMC5431883, “Enhancing Specific Disruption of Intracellular Protein Complexes by Hydrocarbon Stapled Peptides Using Lipid Based Delivery” (Scientific Reports, 2017)
Positions of bridges follow the written chain, without caps; N, C: chain ends. Non-standard residues stand in square brackets, D forms with d. R8 = C=CCCCCCC[C@@](C)(N)C(=O)O; S5 = C=CCCC[C@](C)(N)C(=O)O; Ahx = NCCCCCC(=O)O

Tests used:
Mdm2 joined to HaloTag [1] = molecular target: T1, Mdm2 joined to HaloTag (UniProt Q00987 1-491, HaloTag covalently labelled with a cell permeable fluorogenic substrate); assay: FRET or BRET; nanoBRET in live HEK293 cells transfected with p53-nanoLUC and Mdm2-HaloTag; stapled peptide titrated (10 points), 10% FCS, signal after 4 hours; settings: one partner purified
T1 construct: Mdm2 of the p53:Mdm2 NanoBRET System (Promega); Construct of a bought kit (Promega); source: HEK293, transiently transfected, in live cells

Mdm2 (1-125) [2] = molecular target: T2, Mdm2 (1-125) (UniProt Q00987 1-125); assay: fluorescence polarisation; competitive fluorescence anisotropy (FA) assay on Mdm2 (1-125); Kd determined from the competition; details in the supplementary information; settings: both partners purified
T2 construct: Mdm2, residues 1-125; source: expressed and purified (host and procedure in the supplementary information)

Mdm2 joined to HaloTag [3] = molecular target: T1, Mdm2 joined to HaloTag; assay: FRET or BRET; nanoBRET in live HEK293 cells transfected with p53-nanoLUC and Mdm2-HaloTag; stapled peptide titrated (10 points), 0% FCS, signal after 4 hours; settings: one partner purified
Mdm2 (1-125) [4] = molecular target: T2, Mdm2 (1-125); assay: cell-based or functional assay

T2 sequence (Q00987 1-125): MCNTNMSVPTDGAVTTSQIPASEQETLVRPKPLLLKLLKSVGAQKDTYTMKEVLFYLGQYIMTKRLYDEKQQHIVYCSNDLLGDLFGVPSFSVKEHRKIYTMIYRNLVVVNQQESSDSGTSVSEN
T1 sequence (Q00987 whole entry): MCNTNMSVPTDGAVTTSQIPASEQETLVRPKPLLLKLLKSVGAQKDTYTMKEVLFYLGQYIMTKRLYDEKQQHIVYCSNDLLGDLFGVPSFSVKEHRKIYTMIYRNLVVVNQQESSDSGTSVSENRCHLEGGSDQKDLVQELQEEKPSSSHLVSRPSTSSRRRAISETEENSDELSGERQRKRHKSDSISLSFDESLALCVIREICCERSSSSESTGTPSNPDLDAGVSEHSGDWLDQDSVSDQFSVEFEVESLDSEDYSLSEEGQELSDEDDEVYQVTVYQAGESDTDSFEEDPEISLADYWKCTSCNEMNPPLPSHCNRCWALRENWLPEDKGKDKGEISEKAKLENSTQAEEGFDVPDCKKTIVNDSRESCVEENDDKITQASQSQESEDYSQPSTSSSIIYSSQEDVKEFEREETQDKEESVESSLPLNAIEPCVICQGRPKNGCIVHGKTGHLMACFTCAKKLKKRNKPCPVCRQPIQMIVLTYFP

Ac-KK[Ahx]TSF[R8]EYWALL[S5]ENF-NH2 (staple 7-14) [VIP-82] gave an IC50 (Mdm2 joined to HaloTag [1]) of 17.5 ± 1.3 µM, a Kd (Mdm2 (1-125) [2]) of 24.4 ± 2.3 µM and an IC50 (Mdm2 joined to HaloTag [3]) of 3.9 ± 0.2 µM. The “EC50 of p53 activation, T22 p53 reporter cells (β-galactosidase), 0% FCS; blocks Mdm2:p53” value (Mdm2 (1-125) [4]) was 0.8 µM and the “EC50 of p53 activation, T22 p53 reporter cells (β-galactosidase), 10% FCS; blocks Mdm2:p53” value (Mdm2 (1-125) [4]) was 10 µM.
